Results: article PMC5126634

Key:
His51 [1] = assay: kinetics; settings: 37 °C, multicomponent buffer: 100 mM acetate, 100 mM MES, 100 mM HEPES, 100 mM CHES, 100 mM CAPS
His51 [2] = target: His51 (UniProt position 1526, FHTMWHVTRGA); assay: kinetics; settings: 37 °C, multicomponent buffer: 100 mM acetate, 100 mM MES, 100 mM HEPES, 100 mM CHES, 100 mM CAPS
[3] = enzyme-substrate complex (pKes1, from kcat)
[4] = free enzyme (pKe1, from kcat/Km)

Substance “Dengue virus 2 NS2B-NS3 protease, unlinked complex (NS2BH + NS3pro) (Dengue virus 2 (DENV2))” has a pKa (His51 [1]; [3]) of 8.2 ± 0.1 and a pKa (His51 [1]; [4]) of 8.7 ± 0.7.

“Dengue virus 2 NS2B-NS3 protease, glycine-linked (NS2BH-gly-NS3pro) (Dengue virus 2 (DENV2))” gave a pKa (His51 [2]; [3]) of 8.6 ± 0.4 and a pKa (His51 [2]; [4]) of 8.1 ± 0.3.
